Data taken from patent US7314709B2, “Compositions and methods for detecting and quantifying COX-2 activity by lipoamino acid metabolism” (Vanderbilt University, priority 2002, dated 2008).

What was measured:
ovine COX-1 (oCOX-1) = molecular target: T1, ovine COX-1 (oCOX-1) (Ovis aries, UniProt P05979); settings: compared with AA; cited from earlier work
T1 construct: COX-1 was purified from ram seminal vesicles as previously described; tissue Oxford Biomedical Research; host or cells: ram seminal vesicles
T1 sequence (P05979 25-600): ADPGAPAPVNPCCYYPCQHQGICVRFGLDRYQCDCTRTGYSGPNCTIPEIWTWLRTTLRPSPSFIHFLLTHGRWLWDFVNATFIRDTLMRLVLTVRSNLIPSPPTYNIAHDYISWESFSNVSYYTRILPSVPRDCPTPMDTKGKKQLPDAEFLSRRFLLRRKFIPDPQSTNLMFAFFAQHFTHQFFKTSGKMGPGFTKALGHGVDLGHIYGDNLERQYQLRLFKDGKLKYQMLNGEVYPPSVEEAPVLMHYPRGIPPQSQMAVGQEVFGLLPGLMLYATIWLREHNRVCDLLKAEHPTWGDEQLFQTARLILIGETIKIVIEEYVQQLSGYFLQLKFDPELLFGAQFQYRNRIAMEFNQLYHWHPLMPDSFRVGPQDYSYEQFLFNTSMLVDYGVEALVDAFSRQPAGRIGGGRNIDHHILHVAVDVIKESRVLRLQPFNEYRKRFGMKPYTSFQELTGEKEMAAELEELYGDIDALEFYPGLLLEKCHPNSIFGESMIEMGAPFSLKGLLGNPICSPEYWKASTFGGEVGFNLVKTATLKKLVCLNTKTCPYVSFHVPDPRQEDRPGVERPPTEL

[1] = rats [16,17]; cited from earlier work
[2] = mice [16,17]; cited from earlier work
[3] = substrate: CCCCC/C=C\C/C=C\C/C=C\C/C=C\CCCC(=O)O; test: Steady-state kinetics of COX-2 mediated oxygenation (oxygraph O2 uptake); assay type: biochemical, murine; settings: other: 50 nM COX-2, 100 mM Tris-HCl, 500 μM phenol
Experimental: (§1) Enzymology: COX-1 was purified from ram seminal vesicles as previously described. Site-directed mutagenesis of COX-2 was performed as described previously. Recombinant COX-2 enzymes were expressed in Sf-9 insect cells and purified by ion-exchange chromatography and gel filtration as previously described. Apo-enzymes were reconstituted with hematin prior to activity assays. […] COX activity was quantified as previously described. Initial reaction velocity data were obtained from the linear portion of the oxygen uptake curves. Oxygraph data were analyzed by nonlinear regression with Enzyme Kinetics 1.5 software (Trinity Software, Campton, N.H.).

[4] = substrate: CCCCC/C=C\C/C=C\C/C=C\C/C=C\CCCCNCC(=O)O; test: as above; assay type: biochemical, murine; settings: other: 50 nM COX-2, 100 mM Tris-HCl, 500 μM phenol
Experimental: as §1

**Q.** Which “metabolism by COX-1” value (ovine COX-1 (oCOX-1)) does the source give for `CCCCC/C=C\C/C=C\C/C=C\C/C=C\CCCC(=O)OC(CO)CO` [2-AG, 2-arachidonlyglycerol] here?
**A.** much lesser extent than AA

**Q.** Which “metabolism by COX-1” value (ovine COX-1 (oCOX-1)) does the source give for `CCCCC/C=C\C/C=C\C/C=C\C/C=C\CCCC(=O)NCCO` [AEA, arachidonyl ethanolamide] here?
**A.** much lesser extent than AA

**Q.** Which “formalin-induced tonic inflammatory pain” value [1] does the source give for `CCCCC/C=C\C/C=C\C/C=C\C/C=C\CCCC(=O)NCCCC(=O)O` [δ-arachidonyl aminobutuyic acid] here?
**A.** suppresses formalin-induced tonic inflammatory pain

**Q.** And the analgesia [2]?
**A.** induce analgesia

B1: Murine COX-2 (Mus musculus) (protein)
chain: ANPCCSNPCQNRGECMSTGFDQYKCDCTRTGFYGENCTTPEFLTRIKLLLKPTPNTVHYILTHFKGVWNIVNNIPFLRSLIMKYVLTSRSYLIDSPPTYNVHYGYKSWEAFSNLSYYTRALPPVADDCPTPMGVKGNKELPDSKEVLEKVLLRREFIPDPQGSNMMFAFFAQHFTHQFFKTDHKRGPGFTRGLGHGVDLNHIYGETLDRQHKLRLFKDGKLKYQVIGGEVYPPTVKDTQVEMIYPPHIPENLQFAVGQEVFGLVPGLMMYATIWLREHNRVCDILKQEHPEWGDEQLFQTSRLILIGETIKIVIEDYVQHLSGYHFKLKFDPELLFNQQFQYQNRIASEFNTLYHWHPLLPDTFNIEDQEYSFKQFLYNNSILLEHGLTQFVESFTRQIAGRVAGGRNVPIAVQAVAKASIDQSREMKYQSLNEYRKRFSLKPYTSFEELTGEKEMAAELKALYSDIDVMELYPALLVEKPRPDAIFGETMVELGAPFSLKGLMGNPICSPQYWKPSTFGGEVGFKIINTASIQSLICNNVKGCPFTSFNVQDPQPTKTATINASASHSRLDDINPTVLIKRRSTEL
notes: made in house; host or cells: Sf-9 insect cells
**Q.** Which results are given for B1?
**A.** Km [3]: 3.3 ± 1.0 µM; kcat [3]: 16.6 ± 1.7 s⁻¹; kcat/Km [3]: 5.08e+06 M⁻¹ s⁻¹; Km [4]: 11.7 ± 1.4 µM; kcat [4]: 6.3 ± 1.1 s⁻¹; kcat/Km [4]: 540000 M⁻¹ s⁻¹
